In paper PMC6366758, “Structure basis of neutralization by a novel site II/IV antibody against respiratory syncytial virus fusion protein” (PLoS ONE, 2019):

Assays:
Details in all cases: both partners purified
[1] = target: T1, Antigenic site II synthetic peptide of RSV F (254-278) (Human respiratory syncytial virus A, …); assay: SPR; Biacore T200; mAb (2 ug/mL, 90 s) captured on protein A or protein G on a CM5 chip; site II peptides injected at 100, 200, 400, 800 nM, 180 s, then 600 s buffer; 1:1 fit; apparent KD = kd/ka
T1 construct: RSV F antigenic site II, residues 254-278; also called Site II peptide; full-length peptide; source: synthetic peptide (Peptide 2.0)
T1 chain: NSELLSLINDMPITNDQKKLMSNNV

[2] = target: T2, Antigenic site II peptide 264-278 (Human respiratory syncytial virus A (A2 …)); assay: as above
T2 construct: RSV F antigenic site II, residues 264-278; source: synthetic peptide (Peptide 2.0)
T2 chain: MPITNDQKKLMSNNV

[3] = target: T3, Antigenic site II peptide 254-273 (human respiratory syncytial virus); assay: as above
T3 construct: RSV F antigenic site II, residues 254-273; source: synthetic peptide (Peptide 2.0)
T3 chain: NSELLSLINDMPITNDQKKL

[4] = target: T4, Antigenic site II peptide 260-278 (Human respiratory syncytial virus A (A2 …)); assay: as above
T4 construct: RSV F antigenic site II, residues 260-278; source: synthetic peptide (Peptide 2.0)
T4 chain: LINDMPITNDQKKLMSNNV

[5] = target: T5, Antigenic site II peptide 254-268 (Human respiratory syncytial virus A (A2 …)); assay: as above
T5 construct: RSV F antigenic site II, residues 254-268; source: synthetic peptide (Peptide 2.0)
T5 chain: NSELLSLINDMPITN

[6] = target: T6, Antigenic site II peptide 259-273 (Human respiratory syncytial virus A (A2 …)); assay: as above
T6 construct: RSV F antigenic site II, residues 259-273; source: synthetic peptide (Peptide 2.0)
T6 chain: SLINDMPITNDQKKL

Pre-fusion F = target: T7, Pre-fusion F (Human respiratory syncytial virus A, …, UniProt P03420, stabilised); assay: SPR; Biacore T200; mAb (2 ug/mL) captured on protein A or protein G amine-coupled to a CM5 chip; RSV F injected at 3.3, 10, 30, 90 nM, 180 s association, 600 s dissociation; 1:1 fit; apparent KD = kd/ka
T7 construct: Fusion (F) glycoprotein F0 of human RSV/A2, residues 26-574, intact TM/CT; mutant furin site I, p27 region deleted, fusion peptide deletion, three stabilizing substitutions; Expressed with a gp64 signal peptide; also called pre-fusion RSV F; pre-fusion trimer; source: Sf9, baculovirus-infected, extracted from cell pellets, purified

Post-fusion F = target: T8, Post-fusion F (Human respiratory syncytial virus A, …, stabilised); assay: as above
T8 construct: Fusion (F) glycoprotein of human RSV/A2 from residue 26, TM/CT domains replaced with a C-terminal 6-histidine tag; Expressed with a gp64 signal peptide; also called post-fusion RSV F; post-fusion trimer; source: Sf9, baculovirus-infected, culture supernatant, purified (IMAC, ion exchange)

B1: R4.C6 monoclonal antibody (antibody, V domains shown)
VH: EVQLQQSGPELVKPGASVKISCKASGYAFSNSWMSWVKQRPGKGLEWIGRLFPADGDITYNGHFKDKAALTADKSSNTAYIQLSSLTSEDSAVYFCARMDNSEVFWGQGTLVTVSA
VL: DILLTQSQKFMSTSVGDRVSITCKASQNVRTGVSWYQRKPGQSPKALIYLASNRHTGVPDRFTGRGSGTDFTLTISEVQSEDLADYFCLQHWTVPYTFGGGTKLEIK
notes: mouse IgG2a; mouse kappa; Only the Fv was modelled in 6CXC; also called mAb R4.C6; source: mouse hybridoma (BALB/c immunized with RSV F NP), serum free medium, purified (protein-G)
[1]
  Kd: 12.5 nM
[2]
  Kd: 110 nM
[3]
  binding result: no binding (tested: 800 nM)
[4]
  Kd: 84.2 nM
[5]
  binding result: no binding (tested: 800 nM)
[6]
  binding result: no binding (tested: 800 nM)
Pre-fusion F
  binding result: binds
Post-fusion F
  Kd: 0.34 nM

B2: Motavizumab (antibody, V domains shown)
VH: QVTLRESGPALVKPTQTLTLTCTFSGFSLSTAGMSVGWIRQPPGKALEWLADIWWDDKKHYNPSLKDRLTISKDTSKNQVVLKVTNMDPADTATYYCARDMIFNFYFDVWGQGTTVTVSS
VL: DIQMTQSPSTLSASVGDRVTITCSASSRVGYMHWYQQKPGKAPKLLIYDTSKLASGVPSRFSGSGSGTEFTLTISSLQPDDFATYYCFQGSGYPFTFGGGTKVEIK
notes: IgG1; kappa; also called motatvizumab; source: obtained from National Institute of Standards and Technology
[1]
  Kd: 26.7 nM
Pre-fusion F
  binding result: binds
